According to IntAct's records for PubMed 26823173:

B1: Coronin-1A (Mus musculus), O89053 (parent)
chain: MSRQVVRSSKFRHVFGQPAKADQCYEDVRVSQTTWDSGFCAVNPKFMALICEASGGGAFLVLPLGKTGRVDKNVPLVCGHTAPVLDIAWCPHNDNVIASGSEDCTVMVWEIPDGGLVLPLREPVITLEGHTKRVGIVAWHPTAQNVLLSAGCDNVILVWDVGTGAAVLTLGPDVHPDTIYSVDWSRDGALICTSCRDKRVRVIEPRKGTVVAEKDRPHEGTRPVHAVFVSEGKILTTGFSRMSERQVALWDTKHLEEPLSLQELDTSSGVLLPFFDPDTNIVYLCGKGDSSIRYFEITSEAPFLHYLSMFSSKESQRGMGYMPKRGLEVNKCEIARFYKLHERKCEPIAMTVPRKSDLFQEDLYPPTAGPDPALTAEEWLGGRDAGPLLISLKDGYVPPKSRELRVNRGLDSARRRATPEPSGTPSSDTVSRLEEDVRNLNAIVQKLQERLDRLEETVQAK

Variants of: B1
Details: with gnas2_human GNAS

effect of a mutation on the interaction | Variant
decreasing interaction | T424A
decreasing interaction | T418A
disrupting interaction | T418A;T424A

Variants of: B1
Details: with gnas2_human GNAS
Remark: another data set of the same source

effect of a mutation on the interaction | Variant
disrupting interaction | T418E;T424E
